Measured values published in the Immune Epitope Database (IEDB).

Key:
HLA-A*02:06 = experiment: IEDB peptide-MHC binding, purified MHC/competitive/fluorescence; filed as Kd, often an IC50 or EC50 that approximates it; ≥ and ≤ were set here for values at or beyond the usual limits of such assays; conditions: source organism: Influenza A virus (A/X-31(H3N2))
HLA-B*18:01 [1] = experiment: as above
HLA-B*39:01 [2] = experiment: as above; conditions: source organism: Influenza A virus (A/X-31(H3N2))
HLA-A*68:02 [3] = experiment: as above; conditions: source organism: Influenza A virus (A/X-31(H3N2))
HLA-A*23:01 = experiment: IEDB peptide-MHC binding, purified MHC/direct/fluorescence; filed as Kd, often an IC50 or EC50 that approximates it; ≥ and ≤ were set here for values at or beyond the usual limits of such assays; conditions: source organism: Influenza A virus (A/Hong Kong/213/2003(H5N1))
HLA-A*02:19 = experiment: as above; conditions: source organism: Influenza A virus (A/Taiwan/2/2006(H1N1))
HLA-A*26:03 [4] = experiment: as above; conditions: source organism: Influenza A virus (A/Taiwan/2/2006(H1N1))
HLA-B*08:02 = experiment: as above
HLA-A*31:01 = experiment: as above
HLA-B*57:01 = experiment: as above
HLA-A*24:03 = experiment: as above; conditions: source organism: Influenza A virus (A/Hong Kong/213/2003(H5N1))
HLA-A*02:01 = experiment: as above
HLA-B*07:02 = experiment: as above
HLA-B*15:17 [5] = experiment: as above; conditions: source organism: Influenza A virus (A/Hong Kong/213/2003(H5N1))
HLA-A*02:03 = experiment: as above; conditions: source organism: Influenza A virus (A/Taiwan/2/2006(H1N1))
HLA-A*01:01 = experiment: as above
HLA-B*27:05 = experiment: as above
HLA-A*24:02 [6] = experiment: as above; conditions: source organism: Influenza A virus (A/Hong Kong/213/2003(H5N1))
HLA-A*11:01 = experiment: as above
HLA-A*03:01 = experiment: as above
HLA-B*15:09 = experiment: as above; conditions: source organism: Influenza A virus (A/Taiwan/2/2006(H1N1))
HLA-B*58:01 = experiment: as above
HLA-A*02:12 = experiment: as above; conditions: source organism: Influenza A virus (A/Taiwan/2/2006(H1N1))
HLA-B*08:01 = experiment: as above
HLA-B*15:01 [7] = experiment: as above
HLA-A*02:11 = experiment: as above; conditions: source organism: Influenza A virus (A/Taiwan/2/2006(H1N1))
HLA-A*26:02 [8] = experiment: as above; conditions: source organism: Influenza A virus (A/Taiwan/2/2006(H1N1))
HLA-A*26:03 [9] = experiment: IEDB peptide-MHC binding, purified MHC/competitive/fluorescence; filed as Kd, often an IC50 or EC50 that approximates it; ≥ and ≤ were set here for values at or beyond the usual limits of such assays; conditions: source organism: Vibrio parahaemolyticus RIMD 2210633
HLA-B*15:17 [10] = experiment: as above; conditions: source organism: Vibrio parahaemolyticus RIMD 2210633
HLA-B*15:01 [11] = experiment: as above; conditions: source organism: Vibrio parahaemolyticus RIMD 2210633
HLA-A*26:01 [12] = experiment: as above; conditions: source organism: Vibrio parahaemolyticus RIMD 2210633
HLA-B*35:01 = experiment: as above; conditions: source organism: Vibrio parahaemolyticus RIMD 2210633
HLA-A*26:02 [13] = experiment: as above; conditions: source organism: Vibrio parahaemolyticus RIMD 2210633
HLA-B*40:01 = experiment: IEDB peptide-MHC binding, purified MHC/direct/fluorescence; filed as Kd, often an IC50 or EC50 that approximates it; ≥ and ≤ were set here for values at or beyond the usual limits of such assays; conditions: source organism: Vibrio parahaemolyticus
HLA-B*48:01 = experiment: as above; conditions: source organism: Vibrio parahaemolyticus
HLA-B*08:03 = experiment: as above; conditions: source organism: Vibrio parahaemolyticus RIMD 2210633
HLA-A*68:02 [14] = experiment: as above; conditions: source organism: Vibrio parahaemolyticus
HLA-A*24:02 [15] = experiment: IEDB peptide-MHC binding, purified MHC/competitive/fluorescence; filed as Kd, often an IC50 or EC50 that approximates it; ≥ and ≤ were set here for values at or beyond the usual limits of such assays
HLA-A*24:02 [16] = experiment: IEDB peptide-MHC binding, purified MHC/competitive/fluorescence; ≥ and ≤ were set here for values at or beyond the usual limits of such assays; conditions: source organism: West Nile virus
HLA-C*14:02 = experiment: IEDB peptide-MHC binding, purified MHC/competitive/fluorescence; filed as Kd, often an IC50 or EC50 that approximates it; ≥ and ≤ were set here for values at or beyond the usual limits of such assays; conditions: source organism: Bacillus anthracis str. A0488
HLA-B*15:42 = experiment: as above; conditions: source organism: Bacillus anthracis str. A0488
HLA-A*32:15 = experiment: as above; conditions: source organism: Bacillus anthracis str. A0488
HLA-B*83:01 = experiment: as above; conditions: source organism: Bacillus anthracis str. A0488
HLA-B*45:06 = experiment: as above; conditions: source organism: Bacillus anthracis str. A0488
HLA-B*46:01 = experiment: IEDB peptide-MHC binding, purified MHC/direct/fluorescence; filed as Kd, often an IC50 or EC50 that approximates it; ≥ and ≤ were set here for values at or beyond the usual limits of such assays; conditions: source organism: Bacillus anthracis str. Sterne
HLA-B*18:01 [17] = experiment: as above; conditions: source organism: Bacillus anthracis str. Sterne
HLA-B*27:03 = experiment: as above; conditions: source organism: Bacillus anthracis str. Sterne
HLA-B*39:01 [18] = experiment: as above; conditions: source organism: Bacillus anthracis str. Sterne
HLA-A*26:01 [19] = experiment: as above; conditions: source organism: Bacillus anthracis str. Sterne
[20] = source organism: Influenza A virus (A/X-31(H3N2))
[21] = source organism: Influenza A virus (A/Taiwan/2/2006(H1N1))
[22] = source organism: Influenza A virus (A/Hong Kong/213/2003(H5N1))
[23] = source organism: Vibrio parahaemolyticus RIMD 2210633
[24] = source organism: Vibrio parahaemolyticus
[25] = source organism: Bacillus anthracis str. Sterne

CFMYSDFHF gave a Kd (HLA-A*02:06) of 49.2 nM, a Kd (HLA-B*18:01 [1]; [20]) of 1990 nM and a Kd (HLA-B*39:01 [2]) of at least 20000 nM. It also gave a Kd (HLA-A*68:02 [3]) of 210 nM, a Kd (HLA-A*23:01) of at most 1 nM and a Kd (HLA-A*02:19) of 268 nM. For the same sequence, the Kd (HLA-A*26:03 [4]) was at least 20000 nM, the Kd (HLA-B*08:02; [21]) was at least 20000 nM and the Kd (HLA-A*31:01; [22]) was at least 20000 nM. The Kd (HLA-B*57:01; [22]) was at least 20000 nM, the Kd (HLA-A*24:03) was 7.5 nM and the Kd (HLA-A*02:01; [22]) was 141 nM. For the same sequence, the Kd (HLA-B*07:02; [22]) was at least 20000 nM, the Kd (HLA-B*15:17 [5]) was at least 20000 nM and the Kd (HLA-A*02:03) was 307 nM. It also gave a Kd (HLA-A*01:01; [22]) of at least 20000 nM, a Kd (HLA-B*27:05; [22]) of at least 20000 nM and a Kd (HLA-A*24:02 [6]) of 21 nM. The Kd (HLA-A*11:01; [22]) was at least 20000 nM, the Kd (HLA-A*03:01; [22]) was at least 20000 nM and the Kd (HLA-B*15:09) was at least 20000 nM. The Kd (HLA-B*58:01; [22]) was 74.5 nM, the Kd (HLA-A*02:12) was 243 nM and the Kd (HLA-B*08:01; [21]) was at least 20000 nM. For the same sequence, the Kd (HLA-B*15:01 [7]; [22]) was at least 20000 nM, the Kd (HLA-A*02:11) was 126 nM and the Kd (HLA-A*26:02 [8]) was at least 20000 nM.

ILRPLGIEY was tested, and the Kd (HLA-B*18:01 [1]; [23]) was 159 nM, the Kd (HLA-A*26:03 [9]) was at least 20000 nM and the Kd (HLA-B*15:17 [10]) was 48.8 nM. The Kd (HLA-B*15:01 [11]) was 282 nM, the Kd (HLA-A*26:01 [12]) was 478 nM and the Kd (HLA-B*35:01) was 226 nM. For the same sequence, the Kd (HLA-A*26:02 [13]) was 403 nM, the Kd (HLA-B*40:01) was at least 20000 nM and the Kd (HLA-B*48:01) was at least 20000 nM. It also gave a Kd (HLA-B*08:02; [23]) of at least 20000 nM, a Kd (HLA-A*31:01; [24]) of at least 20000 nM and a Kd (HLA-B*57:01; [24]) of 1530 nM. The Kd (HLA-A*02:01; [24]) was at least 20000 nM, the Kd (HLA-B*07:02; [24]) was at least 20000 nM and the Kd (HLA-A*01:01; [24]) was 2020 nM. The Kd (HLA-B*27:05; [24]) was at least 20000 nM, the Kd (HLA-A*11:01; [24]) was at least 20000 nM and the Kd (HLA-A*03:01; [24]) was 116 nM. It also gave a Kd (HLA-B*08:03) of at least 20000 nM, a Kd (HLA-B*58:01; [24]) of at least 20000 nM and a Kd (HLA-B*08:01; [23]) of at least 20000 nM. The Kd (HLA-A*68:02 [14]) was at least 20000 nM.

Work on KTHIHIFSF yielded a Kd (HLA-A*24:02 [15]; [20]) of 85.5 nM.

With RYLVKTESW the Kd (HLA-A*24:02 [15]; source organism: West Nile virus) was 0.4 nM and the IC50 (HLA-A*24:02 [16]) was 264 nM.

With TTYVYTLPV the Kd (HLA-C*14:02) was 3.5 nM, the Kd (HLA-B*15:42) was at least 5000 nM and the Kd (HLA-A*32:15) was 370 nM. It also gave a Kd (HLA-B*83:01) of at least 5000 nM, a Kd (HLA-B*45:06) of at least 5000 nM and a Kd (HLA-B*46:01) of at least 20000 nM. For the same sequence, the Kd (HLA-B*18:01 [17]) was at least 20000 nM, the Kd (HLA-B*57:01; [25]) was at least 20000 nM and the Kd (HLA-A*02:01; [25]) was 90 nM. The Kd (HLA-B*27:03) was at least 20000 nM, the Kd (HLA-B*39:01 [18]) was at least 20000 nM and the Kd (HLA-B*15:01 [7]; [25]) was at least 20000 nM. For the same sequence, the Kd (HLA-A*26:01 [19]) was at least 20000 nM.
